The record followed here is patent publication US9005937B2, “Dual cofactor specific ribitol dehydrogenase and use thereof” (Konkuk University Industrial Cooperation Corp., priority 2011, dated 2015).

Entries after “also recorded” stand apart in the source; their conditions may differ. Like-named read-outs stand apart in the source and are kept apart here.

One data set has as its system ribitol dehydrogenase. Format: biochemical, Zymomonas mobilis.
Data set [1] addresses T1, Zymomonas mobilis ribitol dehydrogenase, wild-type, SEQ ID NO: 4 (Zymomonas mobilis, UniProt Q5NQS1).
T1 sequence (Q5NQS1 74-338): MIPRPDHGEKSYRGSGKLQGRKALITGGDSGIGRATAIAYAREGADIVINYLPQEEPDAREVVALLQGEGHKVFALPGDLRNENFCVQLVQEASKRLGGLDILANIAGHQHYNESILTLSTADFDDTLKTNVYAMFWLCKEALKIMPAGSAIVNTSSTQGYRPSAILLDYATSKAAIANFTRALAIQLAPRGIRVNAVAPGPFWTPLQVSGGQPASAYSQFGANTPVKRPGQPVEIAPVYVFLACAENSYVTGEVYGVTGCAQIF
Put plainly: Dynamical (kinetic) parameters of ribitol dehydrogenase to coenzyme NAD(H)/NADP(H), wild-type. Format: biochemical. The note with it: NADP 0.01 to 3 mM.

Substrate in data set [2]: NC(=O)c1ccc[n+]([C@@H]2O[C@H](COP(=O)(O)OP(=O)(O)OC[C@H]3O[C@@H](n4cnc5c(N)ncnc54)[C@H](OP(=O)(O)O)[C@@H]3O)[C@@H](O)[C@H]2O)c1
Put plainly: Dynamical parameters to coenzyme, variant S156C. Format: biochemical, Zymomonas mobilis. The settings on record: other: NADP 0.01 to 3 mM, ribitol, pH 9.0. From the text: (§1) There were no differences between the expression amount of various amino acid variants of Ser 156 and the expression amount of wide-type. The dynamical parameter of each of variants was confirmed using the above variants.

Substrate in data set [3]: NC(=O)c1ccc[n+]([C@@H]2O[C@H](COP(=O)(O)OP(=O)(O)OC[C@H]3O[C@@H](n4cnc5c(N)ncnc54)[C@H](OP(=O)(O)O)[C@@H]3O)[C@@H](O)[C@H]2O)c1
Put plainly: Dynamical parameters to coenzyme, variant S156D. Format: biochemical, Zymomonas mobilis. The note with it: other: NADP 0.01 to 3 mM, ribitol, pH 9.0.
From the text: In addition, the present invention provides a ribitol dehydrogenase mutant selected from the group consisting of a) a mutant, in which serine, an amino acid at position 156 of the ribitol dehydrogenase having an amino acid sequence as set forth in SEQ ID NO: 4 is substituted with aspartic acid; and b) a mutant, in which tyrosine, an amino acid at position 51 of the ribitol dehydrogenase having an amino acid sequence as set forth in SEQ ID NO: 4 is substituted with aspartic acid and serine, an amino acid at position 156 is substituted with alanine.
The mutants have preferably amino acid sequences as set forth in SEQ ID NOS: 5 and 6, respectively, but the present invention is not limited thereto.
as §1

Substrate in data set [4]: NC(=O)c1ccc[n+]([C@@H]2O[C@H](COP(=O)(O)OP(=O)(O)OC[C@H]3O[C@@H](n4cnc5c(N)ncnc54)[C@H](OP(=O)(O)O)[C@@H]3O)[C@@H](O)[C@H]2O)c1
Put plainly: Dynamical parameters to coenzyme, variant S156E. Format: biochemical, Zymomonas mobilis. The settings on record: other: NADP 0.01 to 3 mM, ribitol, pH 9.0.
From the text: as §1

Substrate in data set [5]: NC(=O)c1ccc[n+]([C@@H]2O[C@H](COP(=O)(O)OP(=O)(O)OC[C@H]3O[C@@H](n4cnc5c(N)ncnc54)[C@H](OP(=O)(O)O)[C@@H]3O)[C@@H](O)[C@H]2O)c1
Put plainly: Dynamical parameters to coenzyme, variant S156G. Format: biochemical, Zymomonas mobilis. The settings on record: other: NADP 0.01 to 3 mM, ribitol, pH 9.0.
From the text: as §1

Substrate in data set [6]: NC(=O)c1ccc[n+]([C@@H]2O[C@H](COP(=O)(O)OP(=O)(O)OC[C@H]3O[C@@H](n4cnc5c(N)ncnc54)[C@H](OP(=O)(O)O)[C@@H]3O)[C@@H](O)[C@H]2O)c1
Put plainly: Dynamical parameters to coenzyme, variant S156A. The note with it: other: NADP 0.01 to 3 mM, ribitol, pH 9.0. Format: biochemical, Zymomonas mobilis.
From the text: as §1

Substrate in data set [7]: NC(=O)c1ccc[n+]([C@@H]2O[C@H](COP(=O)(O)OP(=O)(O)OC[C@H]3O[C@@H](n4cnc5c(N)ncnc54)[C@H](OP(=O)(O)O)[C@@H]3O)[C@@H](O)[C@H]2O)c1
Put plainly: Dynamical parameters to coenzyme, variant S156Y. Format: biochemical, Zymomonas mobilis. The settings on record: other: NADP 0.01 to 3 mM, ribitol, pH 9.0.
From the text: as §1

Substrate in data set [8]: NC(=O)c1ccc[n+]([C@@H]2O[C@H](COP(=O)(O)OP(=O)(O)OC[C@H]3O[C@@H](n4cnc5c(N)ncnc54)[C@H](OP(=O)(O)O)[C@@H]3O)[C@@H](O)[C@H]2O)c1
Put plainly: Dynamical parameters to coenzyme, variant S156W. Format: biochemical, Zymomonas mobilis. The settings on record: other: NADP 0.01 to 3 mM, ribitol, pH 9.0.
From the text: as §1

Substrate in data set [9]: NC(=O)c1ccc[n+]([C@@H]2O[C@H](COP(=O)(O)OP(=O)(O)OC[C@H]3O[C@@H](n4cnc5c(N)ncnc54)[C@H](OP(=O)(O)O)[C@@H]3O)[C@@H](O)[C@H]2O)c1
Put plainly: Dynamical parameters to coenzyme, variant S156T. Format: biochemical, Zymomonas mobilis. The settings on record: other: NADP 0.01 to 3 mM, ribitol, pH 9.0.
From the text: as §1

The mark [10] stands for this setting: metal ion 10 mM, enzyme treated with 10 mM EDTA for 24 hours and dialyzed.

As to `O=S(=O)([O-])[O-].[Cu+2]` [CuSO4], the “Relative activity (%) 10 mM” value with ribitol dehydrogenase (setting [10]) came to 0.1%.
As for `[Cl-].[Cl-].[Co+2]` [CoCl2], in the data set with ribitol dehydrogenase, the “Relative activity (%) 10 mM” value is listed as 62.5% and the “activity of enzyme in the presence of metal ion (in words)” value is “maximum enzyme activity; also recorded: the activity of enzyme was observed”.
Consider `[Cl-].[Cl-].[Zn+2]` [ZnCl2], for which, in the data set on ribitol dehydrogenase (setting [10]), the “Relative activity (%) 10 mM” value is given as 0.3%.
Same read-out and setting: then `[Cl-].[Cl-].[Mg+2]` [MgCl2], with 0.4%.
Turning to `NC(=O)c1ccc[n+]([C@@H]2O[C@H](COP(=O)(O)OP(=O)(O)OC[C@H]3O[C@@H](n4cnc5c(N)ncnc54)[C@H](OP(=O)(O)O)[C@@H]3O)[C@@H](O)[C@H]2O)c1` [NADP^+], in data set [1], the “kcat (NADP^+)” value was found to be 2.79 ± 0.15 s⁻¹.
As to `[Ca+2].[Cl-].[Cl-]` [CaCl2], the “Relative activity (%) 10 mM” value with ribitol dehydrogenase (setting [10]) is 1.1%.
Turning to `[Cl][Mn][Cl]` [MnCl2], the “Relative activity (%) 10 mM” value in the data set with ribitol dehydrogenase (setting [10]) worked out at 100%. Also, the “activity of enzyme in the presence of metal ion (in words)” value in the data set on ribitol dehydrogenase (metal ion 10 mM, listed as Mn^2+) was “maximum enzyme activity; also recorded: the activity of enzyme was observed”.
Regarding `[Cl][Fe]([Cl])[Cl]` [FeCl3], in the data set on ribitol dehydrogenase (setting [10]), the “Relative activity (%) 10 mM” value amounted to 0.2%.

B1: Zymomonas mobilis ribitol dehydrogenase (SEQ ID NO: 4) variant S156C (Zymomonas mobilis subsp. mobilis ZM4 = ATCC 31821; S229C) (protein)
chain: MIPRPDHGEKSYRGSGKLQGRKALITGGDSGIGRATAIAYAREGADIVINYLPQEEPDAREVVALLQGEGHKVFALPGDLRNENFCVQLVQEASKRLGGLDILANIAGHQHYNESILTLSTADFDDTLKTNVYAMFWLCKEALKIMPAGSAIVNTCSTQGYRPSAILLDYATSKAAIANFTRALAIQLAPRGIRVNAVAPGPFWTPLQVSGGQPASAYSQFGANTPVKRPGQPVEIAPVYVFLACAENSYVTGEVYGVTGCAQIF
As a reminder, the Km is the substrate concentration at which the rate is half of its maximum. In general, kcat refers to the maximal rate divided by the concentration of active sites. One may read the kcat/Km as the second-order rate constant that governs catalysis at low substrate concentration. As to B1, in [2], the Km was found to be 170 ± 20 µM, the kcat amounted to 2.05 ± 0.10 s⁻¹ and the kcat/Km is 12100 M⁻¹ s⁻¹.

B2: Zymomonas mobilis ribitol dehydrogenase (SEQ ID NO: 4) variant S156D, SEQ ID NO: 5 (Zymomonas mobilis subsp. mobilis ZM4 = ATCC 31821; N321D/S229D) (protein)
chain: MIPRPDHGEKSYRGSGKLQGRKALITGGDSGIGRATAIAYAREGADIVINYLPQEEPDAREVVALLQGEGHKVFALPGDLRNENFCVQLVQEASKRLGGLDILANIAGHQHYNESILTLSTADFDDTLKTNVYAMFWLCKEALKIMPAGSAIVNTDSTQGYRPSAILLDYATSKAAIANFTRALAIQLAPRGIRVNAVAPGPFWTPLQVSGGQPASAYSQFGANTPVKRPGQPVEIAPVYVFLACAEDSYVTGEVYGVTGCAQIF
For B2, in data set [3], the Michaelis-Menten constant (Km) worked out at 300 ± 30 µM, the kcat turned out to be 2.46 ± 0.21 s⁻¹ and the kcat/Km worked out at 8200 M⁻¹ s⁻¹.

B3: Zymomonas mobilis ribitol dehydrogenase (SEQ ID NO: 4) variant S156E (Zymomonas mobilis subsp. mobilis ZM4 = ATCC 31821; S229E) (protein)
chain: MIPRPDHGEKSYRGSGKLQGRKALITGGDSGIGRATAIAYAREGADIVINYLPQEEPDAREVVALLQGEGHKVFALPGDLRNENFCVQLVQEASKRLGGLDILANIAGHQHYNESILTLSTADFDDTLKTNVYAMFWLCKEALKIMPAGSAIVNTESTQGYRPSAILLDYATSKAAIANFTRALAIQLAPRGIRVNAVAPGPFWTPLQVSGGQPASAYSQFGANTPVKRPGQPVEIAPVYVFLACAENSYVTGEVYGVTGCAQIF
Take B3: in data set [4], the Michaelis constant (Km) was determined as 350 ± 40 µM, the kcat was found to be 2.39 ± 0.15 s⁻¹ and the kcat/Km was 6830 M⁻¹ s⁻¹.

B4: Zymomonas mobilis ribitol dehydrogenase (SEQ ID NO: 4) variant S156G (Zymomonas mobilis subsp. mobilis ZM4 = ATCC 31821; S229G) (protein)
chain: MIPRPDHGEKSYRGSGKLQGRKALITGGDSGIGRATAIAYAREGADIVINYLPQEEPDAREVVALLQGEGHKVFALPGDLRNENFCVQLVQEASKRLGGLDILANIAGHQHYNESILTLSTADFDDTLKTNVYAMFWLCKEALKIMPAGSAIVNTGSTQGYRPSAILLDYATSKAAIANFTRALAIQLAPRGIRVNAVAPGPFWTPLQVSGGQPASAYSQFGANTPVKRPGQPVEIAPVYVFLACAENSYVTGEVYGVTGCAQIF
As to B4, in data set [5], the Km is 340 ± 70 µM, the kcat stood at 0.72 ± 0.08 s⁻¹ and the kcat/Km came to 2120 M⁻¹ s⁻¹.

B5: Zymomonas mobilis ribitol dehydrogenase (SEQ ID NO: 4) variant S156A (Zymomonas mobilis subsp. mobilis ZM4 = ATCC 31821; S229A) (protein)
chain: MIPRPDHGEKSYRGSGKLQGRKALITGGDSGIGRATAIAYAREGADIVINYLPQEEPDAREVVALLQGEGHKVFALPGDLRNENFCVQLVQEASKRLGGLDILANIAGHQHYNESILTLSTADFDDTLKTNVYAMFWLCKEALKIMPAGSAIVNTASTQGYRPSAILLDYATSKAAIANFTRALAIQLAPRGIRVNAVAPGPFWTPLQVSGGQPASAYSQFGANTPVKRPGQPVEIAPVYVFLACAENSYVTGEVYGVTGCAQIF
Regarding B5, in data set [6], the Km came out at 390 ± 130 µM, the kcat was found to be 1.19 ± 0.07 s⁻¹ and the kcat/Km was determined as 3050 M⁻¹ s⁻¹.

B6: Zymomonas mobilis ribitol dehydrogenase (SEQ ID NO: 4) variant S156Y (Zymomonas mobilis subsp. mobilis ZM4 = ATCC 31821; S229Y) (protein)
chain: MIPRPDHGEKSYRGSGKLQGRKALITGGDSGIGRATAIAYAREGADIVINYLPQEEPDAREVVALLQGEGHKVFALPGDLRNENFCVQLVQEASKRLGGLDILANIAGHQHYNESILTLSTADFDDTLKTNVYAMFWLCKEALKIMPAGSAIVNTYSTQGYRPSAILLDYATSKAAIANFTRALAIQLAPRGIRVNAVAPGPFWTPLQVSGGQPASAYSQFGANTPVKRPGQPVEIAPVYVFLACAENSYVTGEVYGVTGCAQIF
For the molecule B6, in data set [7], the Km turned out to be 230 ± 130 µM, the kcat is 1.42 ± 0.16 s⁻¹ and the kcat/Km was 6170 M⁻¹ s⁻¹.

B7: Zymomonas mobilis ribitol dehydrogenase (SEQ ID NO: 4) variant S156W (Zymomonas mobilis subsp. mobilis ZM4 = ATCC 31821; S229W) (protein)
chain: MIPRPDHGEKSYRGSGKLQGRKALITGGDSGIGRATAIAYAREGADIVINYLPQEEPDAREVVALLQGEGHKVFALPGDLRNENFCVQLVQEASKRLGGLDILANIAGHQHYNESILTLSTADFDDTLKTNVYAMFWLCKEALKIMPAGSAIVNTWSTQGYRPSAILLDYATSKAAIANFTRALAIQLAPRGIRVNAVAPGPFWTPLQVSGGQPASAYSQFGANTPVKRPGQPVEIAPVYVFLACAENSYVTGEVYGVTGCAQIF
For the molecule B7, in [8], the Km was found to be 210 ± 30 µM, the kcat stood at 2.05 ± 0.11 s⁻¹ and the kcat/Km stood at 9760 M⁻¹ s⁻¹.

B8: Zymomonas mobilis ribitol dehydrogenase (SEQ ID NO: 4) variant S156T (Zymomonas mobilis subsp. mobilis ZM4 = ATCC 31821; S229T) (protein)
chain: MIPRPDHGEKSYRGSGKLQGRKALITGGDSGIGRATAIAYAREGADIVINYLPQEEPDAREVVALLQGEGHKVFALPGDLRNENFCVQLVQEASKRLGGLDILANIAGHQHYNESILTLSTADFDDTLKTNVYAMFWLCKEALKIMPAGSAIVNTTSTQGYRPSAILLDYATSKAAIANFTRALAIQLAPRGIRVNAVAPGPFWTPLQVSGGQPASAYSQFGANTPVKRPGQPVEIAPVYVFLACAENSYVTGEVYGVTGCAQIF
Regarding B8, in data set [9], the Km was determined as 220 ± 30 µM, the turnover number (kcat) amounted to 1.64 ± 0.22 s⁻¹ and the kcat/Km amounted to 7450 M⁻¹ s⁻¹.
